The numbers were not newly measured in patent publication US20170173060A1, “ACTIVATION OF THE ENDOGENOUS ILEAL BRAKE HORMONE PATHWAY FOR ORGAN REGENERATION AND RELATED COMPOSITIONS, METHODS OF TREATMENT, DIAGNOSTICS, AND REGULATORY SYSTEMS” (VOLANT HOLDINGS GMBH, priority 2014, published 2017), which cites them from elsewhere.

Data set [1] relates to MIN-6 cells. The conditions noted are these: immunoprecipitation and western blotting.
The subject of data set [2] is severely streptozotocin-diabetic rats. To be noted: rat, in vivo.

B1: Betacellulin (protein, UniProt P35070 32-111, looked up)
Betacellulin: DGNSTRSPETNGLLCGDPEENCAATTTQSKRKGHFSRCPKQYKHYCIKGRCRFVVAEQTPSCVCDEGYIGARCERVDLFY
modifications: Betacellulin
notes: member of the epidermal growth factor family
Turning to B1, the “phosphorylation of EGF receptors (ErbBs)” value in data set [1] was “induced phosphorylation of only ErbB-1 and ErbB-2”.

B2: EGF (protein, UniProt P01133 23-1207, looked up)
Pro-epidermal growth factor: PQHWSCPEGTLAGNGNSTCVGPAPFLIFSHGNSIFRIDTEGTNYEQLVVDAGVSVIMDFHYNEKRIYWVDLERQLLQRVFLNGSRQERVCNIEKNVSGMAINWINEEVIWSNQQEGIITVTDMKGNNSHILLSALKYPANVAVDPVERFIFWSSEVAGSLYRADLDGVGVKALLETSEKITAVSLDVLDKRLFWIQYNREGSNSLICSCDYDGGSVHISKHPTQHNLFAMSLFGDRIFYSTWKMKTIWIANKHTGKDMVRINLHSSFVPLGELKVVHPLAQPKAEDDTWEPEQKLCKLRKGNCSSTVCGQDLQSHLCMCAEGYALSRDRKYCEDVNECAFWNHGCTLGCKNTPGSYYCTCPVGFVLLPDGKRCHQLVSCPRNVSECSHDCVLTSEGPLCFCPEGSVLERDGKTCSGCSSPDNGGCSQLCVPLSPVSWECDCFPGYDLQLDEKSCAASGPQPFLLFANSQDIRHMHFDGTDYGTLLSQQMGMVYALDHDPVENKIYFAHTALKWIERANMDGSQRERLIEEGVDVPEGLAVDWIGRRFYWTDRGKSLIGRSDLNGKRSKIITKENISQPRGIAVHPMAKRLFWTDTGINPRIESSSLQGLGRLVIASSDLIWPSGITIDFLTDKLYWCDAKQSVIEMANLDGSKRRRLTQNDVGHPFAVAVFEDYVWFSDWAMPSVMRVNKRTGKDRVRLQGSMLKPSSLVVVHPLAKPGADPCLYQNGGCEHICKKRLGTAWCSCREGFMKASDGKTCLALDGHQLLAGGEVDLKNQVTPLDILSKTRVSEDNITESQHMLVAEIMVSDQDDCAPVGCSMYARCISEGEDATCQCLKGFAGDGKLCSDIDECEMGVPVCPPASSKCINTEGGYVCRCSEGYQGDGIHCLDIDECQLGEHSCGENASCTNTEGGYTCMCAGRLSEPGLICPDSTPPPHLREDDHHYSVRNSDSECPLSHDGYCLHDGVCMYIEALDKYACNCVVGYIGERCQYRDLKWWELRHAGHGQQQKVIVVAVCVVVLVMLLLLSLWGAHYYRTQKLLSKNPKNPYEESSRDVRSRRPADTEDGMSSCPQPWFVVIKEHQDLKNGGQPVAGEDGQAADGSMQPTSWRQEPQLCGMGTEQGCWIPVSSDKGSCPQVMERSFHMPSYGTQTLEGGVEKPHSLLSANPLWQQRALDPPHQMELTQ
modifications: Pro-epidermal growth factor
Turning to B2, the glucose tolerance result in data set [2] was “neither gastrin nor EGF alone improved glucose tolerance”.
